Data reported in article PMC12908443 (Nature metabolism, 2021).

T1: Recombinant 6 × His-tagged Acs2 (Acs2–His6) (budding yeast (S. cerevisiae), UniProt P52910 1-683)
T1 sequence (looked up): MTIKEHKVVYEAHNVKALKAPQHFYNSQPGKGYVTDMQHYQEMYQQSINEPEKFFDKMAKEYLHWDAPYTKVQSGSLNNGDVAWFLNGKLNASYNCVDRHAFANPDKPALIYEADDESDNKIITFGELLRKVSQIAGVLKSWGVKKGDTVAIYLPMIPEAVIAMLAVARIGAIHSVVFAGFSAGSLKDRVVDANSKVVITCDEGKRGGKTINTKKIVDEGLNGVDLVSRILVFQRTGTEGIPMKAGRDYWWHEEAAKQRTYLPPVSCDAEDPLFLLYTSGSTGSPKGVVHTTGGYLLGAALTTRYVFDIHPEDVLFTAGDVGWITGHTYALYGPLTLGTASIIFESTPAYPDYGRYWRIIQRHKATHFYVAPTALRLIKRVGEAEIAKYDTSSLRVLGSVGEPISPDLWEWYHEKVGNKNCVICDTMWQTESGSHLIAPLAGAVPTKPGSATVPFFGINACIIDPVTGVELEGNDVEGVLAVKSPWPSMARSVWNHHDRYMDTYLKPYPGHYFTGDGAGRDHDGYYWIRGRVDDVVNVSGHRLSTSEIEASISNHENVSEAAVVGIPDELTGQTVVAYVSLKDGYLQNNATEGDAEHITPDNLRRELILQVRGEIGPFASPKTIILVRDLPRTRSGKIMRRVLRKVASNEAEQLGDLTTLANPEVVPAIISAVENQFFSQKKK

T2: Glutathione S-transferase (GST)–Acs2 (budding yeast (S. cerevisiae), UniProt P52910 1-683)
T2 sequence (looked up): T1 sequence (looked up)

B1: Recombinant CL7-tagged Sas2 (Sas2–CL7) (enzyme, budding yeast (S. cerevisiae), UniProt P40963 1-338, looked up)
chain: MARSLSQSLTATTQKLKGKKNGGKGKNKPSAKIKKTQKEMLYGILNERNIRQIQFGLNKKFSTWYGSAVYFDPETKRLGCSETKGQLSSVSNSQYWLDTLFVCEYCFKYTDDQTRFVGHVASCPFQYRVPGKIKYKSPEYTIRRVKGSKYQLFCQCLCLFTKLYLDNKSMYFKVDHYEFYIVYETGSTKPMGFFSKDLVSYQQNNLACILIFPPYQRRGLGLLLIEFSYKLSQLEGVISGPEVPLSPFGLIGYLKYWSQILCWHLIEGDLAHYDKVTLEDLSIVTGMRVNDVILTLKHLNCIGENNQIYLQSLNSWLKLHGTKRNWFKLKDEYLLIDD
B2: Purified recombinant Sas2 (Sas2–His6) (enzyme, budding yeast (S. cerevisiae), UniProt P40963 1-338, looked up)
chain: B1 chain

Legend:
[1] = target: T1, Recombinant 6 × His-tagged Acs2 …; test: pull-down
[2] = target: T2, Glutathione S-transferase (GST)–Acs2; test: pull-down

Binder	binding result [1]	binding result [2]
B1	binds	
B2		binds
